First the molecules themselves.
B1: DBD–Ligase IV (amino acids 1–240) (domain or fragment)
chain: MAASQTSQTVASHVPFADLCSTLERIQKSKGRAEKIRHFREFLDSWRKFHDALHKNHKDVTDSFYPAMRLILPQLERERMAYGIKETMLAKLYIELLNLPRDGKDALKLLNYRTPTGTHGDAGDFAMIAYFVLKPRCLQKGSLTIQQVNDLLDSIASNNSAKRKDLIKKSLLQLITQSSALEQKWLIRMIIKDLKLGVSQQTIFSVFHNDAAELHNVTTDLEKVCRQLHDPSVGLSDISI

Assay [1] addresses GST–Artemis C terminus (human, UniProt Q96SD1 386-692). Description: pull-down.
Assay [2] deals with B1. The assay can be described thus: fluorescence polarisation.

Where no end group is shown, it is not given here.

Chain of GST–Artemis C terminus (Q96SD1 386-692): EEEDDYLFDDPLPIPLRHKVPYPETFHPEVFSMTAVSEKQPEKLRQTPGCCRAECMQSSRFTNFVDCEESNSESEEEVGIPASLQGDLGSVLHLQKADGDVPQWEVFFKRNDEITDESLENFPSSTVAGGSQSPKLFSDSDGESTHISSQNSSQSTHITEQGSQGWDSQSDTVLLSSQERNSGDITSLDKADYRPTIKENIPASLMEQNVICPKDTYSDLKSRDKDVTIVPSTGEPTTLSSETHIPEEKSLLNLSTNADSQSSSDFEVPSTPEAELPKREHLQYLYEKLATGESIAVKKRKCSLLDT

For B1, in assay [1], the binding result is listed as “binds”.

B2: Ligase IV–interacting human Artemis peptide, WT (peptide)
peptide: {FAM}-DVPQWEVFFKR
As for B2, in assay [2], the Kd was approximately 2600 nM.
